Results published in patent US20040072266A1, “Method of modifying cell motility via compounds and polypeptides that interact with a Wnt pathway” (priority 2002, published 2004).

B1: Wnt1: Wnt polypeptide supplied as media pre-conditioned by 293T cells expressing Wnt1 (mouse Wnt 1 per b63) (protein, UniProt P04426 28-370, looked up)
Proto-oncogene Wnt-1: ANSSGRWWGIVNIASSTNLLTDSKSLQLVLEPSLQLLSRKQRRLIRQNPGILHSVSGGLQSAVRECKWQFRNRRWNCPTAPGPHLFGKIVNRGCRETAFIFAITSAGVTHSVARSCSEGSIESCTCDYRRRGPGGPDWHWGGCSDNIDFGRLFGREFVDSGEKGRDLRFLMNLHNNEAGRTTVFSEMRQECKCHGMSGSCTVRTCWMRLPTLRAVGDVLRDRFDGASRVLYGNRGSNRASRAELLRLEPEDPAHKPPSPHDLVYFEKSPNFCTYSGRLGTAGTAGRACNSSSPALDGCELLCCGRGHRTRTQRVTERCNCTFHWCCHVSCRNCTHTRVLHECL
modifications: conditioned medium from 293T cells
B2: Wnt5a: Wnt polypeptide supplied as media pre-conditioned by 293T cells expressing Wnt5a (mouse Wnt 5A per b63) (protein, UniProt P22725 62-380, looked up)
Protein Wnt-5a: IIGAQPLCSQLAGLSQGQKKLCHLYQDHMQYIGEGAKTGIKECQYQFRHRRWNCSTVDNTSVFGRVMQIGSRETAFTYAVSAAGVVNAMSRACREGELSTCGCSRAARPKDLPRDWLWGGCGDNIDYGYRFAKEFVDARERERIHAKGSYESARILMNLHNNEAGRRTVYNLADVACKCHGVSGSCSLKTCWLQLADFRKVGDALKEKYDSAAAMRLNSRGKLVQVNSRFNSPTTQDLVYIDPSPDYCVRNESTGSLGTQGRLCNKTSEGMDGCELMCCGRGYDQFKTVQTERCHCKFHWCCYVKCKKCTEIVDQFVCK
modifications: conditioned medium from 293T cells

Tested on: NIH3T3 cells
Assay: Wnt conditioned media treatment of NIH3T3 cells, phalloidin actin staining, protrusion/filopodia count
Type: cell-based, mouse
Settings: NIH3T3 cells on fibronectin treated cover slips, 15 minutes in conditioned media, Alexa568 phalloidin staining
Experimental: FIG. 1: Wnt treatment increases the protrusive activity of NIH3T3 cells. NIH3T3 cells were plated at low density on fibronectin treated cover slips. After being allowed to re-attach for 12 hours, cells were placed into media that was pre-conditioned either by control 293T cells (A), 293T cells expressing Wnt1 (B) or 293T cells expressing Wnt5a (C and D). After 15 minutes in conditioned media, cells were fixed and stained with Alexa568 conjugated phalloidin to label the actin cyto-skeleton. Wnt treated cells contained higher numbers of actin based protrusions relative to control. These included filopodia (arrows in B and C) as well as membrane ruffles (arrows in D). E. The number of filopodia per cell was counted for NIH3T3 cells treated as described above. […] Columns represent the average number of filopodia per cell. N=50, 80, 76 cells for control, Wnt1 and Wnt5a, respectively. Error bars represent the standard error of the mean for each group shown.
We can use Wnt conditioned media as a source of Wnt polypeptides and fragments of them in testing the ability of a cell to modify its cell motility characteristics. […]
In FIG. 1, we show the […] after the Wnt treatment. […] The degree of motility can be measured through the number of filopodia, for example, or through assyas that measure the levels or increases in cytoskeletal proteins. […]

Row | Molecule | number of filopodia per cell relative to control
1 | B1 | significant increase
2 | B2 | significant increase
